Patent US8846873B2, “Antibodies directed to GPNMB and uses thereof” (Celldex Therapeutics, Inc., priority 2004, dated 2014)
“Also recorded” adds a separate entry of the source.

What was measured:
GPNMB = target: T1, GPNMB (Homo sapiens, UniProt Q14956); test: Binning of antibodies (Luminex competitive binding); conditions: three bins of six anti-GPNMB antibodies
T1 construct: made in house; host or cells: HEK 293
T1 sequence (Q14956 23-492): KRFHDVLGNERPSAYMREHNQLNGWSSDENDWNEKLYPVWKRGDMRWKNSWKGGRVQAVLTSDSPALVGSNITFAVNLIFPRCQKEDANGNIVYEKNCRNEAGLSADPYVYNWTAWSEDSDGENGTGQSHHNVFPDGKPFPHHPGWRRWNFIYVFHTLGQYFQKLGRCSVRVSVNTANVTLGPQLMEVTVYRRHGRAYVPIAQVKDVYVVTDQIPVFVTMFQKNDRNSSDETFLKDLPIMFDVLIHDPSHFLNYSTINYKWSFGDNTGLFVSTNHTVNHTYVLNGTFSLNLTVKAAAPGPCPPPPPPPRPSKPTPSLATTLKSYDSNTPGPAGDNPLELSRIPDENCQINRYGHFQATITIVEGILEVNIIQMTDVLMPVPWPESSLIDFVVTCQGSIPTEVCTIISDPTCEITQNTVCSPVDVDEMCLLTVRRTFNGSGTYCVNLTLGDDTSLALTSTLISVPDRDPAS
Procedure: Certain antibodies, described herein were binned in accordance with the protocol described in U.S. Patent Application Publication No. 20030157730. MxhIgG conjugated beads are prepared for coupling to primary antibody. The volume of supernatant needed is calculated using the following formula: (n+10)×50 μL (where n=total number of samples on plate). Where the concentration is known, 0.5 μg/mL is used. Bead stock is gently vortexed, then diluted in supernatant to a concentration of 2500 of each bead per well or 0.5×10^5/mL and incubated on a shaker in the dark at RT overnight, or 2 hours if at a known concentration of […]. Following aspiration, 50 μL of each bead is added to each well of filter plate, then washed once by adding 100 μL/well wash buffer and aspirating. Antigen and controls are added to filter plate 50 μL/well then covered and allowed to incubate in the dark for 1 hour on shaker. Following a wash step, a secondary unknown antibody is added at 50 μL/well using the same dilution (or concentration if known) as is used for the primary antibody. The plates are then incubated in the dark for 2 hours at RT on shaker followed by a wash step. Next, 50 μL/well biotinylated mxhIgG diluted 1:500 is added and allowed to incubate in the dark for 1 hour on shaker at RT. […]

CG56972-expressing cells = test: Internalization of cell surface bound antibodies (flow cytometry); type: cell-based; conditions: incubation with CG56972-expressing cells
Procedure: Internalization of cell surface bound antibodies was assessed by a modified flow cytometry procedure. […] After washing cells, incubation was shifted to 37° C. for 1 hr to allow internalization of bound antibodies. Cells that remained on ice (total surface bound) or that were incubated at 37° C. […] Labeled cells were analyzed by flow cytometry as described above. The percentage of antibody internalized was determined using the GMRs and the following formula: Percent internalized=Total surface bound (4° C.)−Total surface bound (37° C.)/Total surface bound (4° C.)×100

SK-Mel-2 cells = test: ADCC assay with human PBMC (DELFIA EuTDA cytotoxicity); type: cell-based; conditions: human PBMC 30 to 100 fold; 2, 5, 10 μg/200 μl; listed as CR011 IgG2
Procedure: We next examined whether the CR0111gG1 mAb could induce ADCC in SK-MEL-2 cells in culture in the presence of human PBMC. Human PBMC were isolated from whole blood using a Ficoll-Plaque. Briefly, in a 50 mL tube, 15 mL of PBS was added to 20 mL of whole blood which was underlayed with 10 mL Ficoll-Plaque and the tube was centrifuged at 2000 RPM. Mononuclear cells were collected from the interface and washed 3 times with PBS. The ADCC assay was carried out in a 96 well plate using a fluorescence assay for cytolysis from Perkin-Elmer (DELFIA EuTDA Cytotoxic assay). The procedure is based on loading target cells with a fluorescence enhancing ligand (BATDA, bis (acetoxymethyl) terpyridine—dicarboxylate). The hydrophic ligand penetrates the membrane quickly. Within the cell the esterbonds are hydrolyzed to form a hydrophilic ligand (TDA, terpyridine—dicarboxylic acid) which can no longer pass through the membrane. After cytolysis the ligand is released and introduced to the Europium solution. The europium and the ligand form a highly fluorescent and stable chelate (EuTDA). Fluorescence intensity are recorded using excitation and emission wavelengths as λex=340 nm and λem=613 nm, respectively.

[1] = tested on: SK-MEL-2 melanoma xenografts; test: Human SK-MEL-2 melanoma xenograft in athymic mice; type: in vivo; conditions: CR011-ONC-1, CR011-vcMMAE 5 mg/kg/treatment i.v. q4d x4, components at doses identical to those in the immunoconjugate
Procedure: Test Animals: Five- to 6-week old athymic mice (CD-1 nu/nu females), used for human tumor xenografts, were obtained from Harlan Laboratories (Indianapolis, Ind.). Animals were housed in specific pathogen-free conditions, according to the guidelines of the Association for Assessment and Accreditation of Laboratory Animal Care International (AAALAC International). Test animals were provided pelleted food and water ad libitum and kept in a room with conditioned ventilation (HVAC), temperature (22°±2° C.), relative humidity (55%±15%), and photoperiod (12 hr). All studies were carried out with approved institutional animal care and use protocols.
Human Melanoma Xenograft Models. The tumor inhibitory activity of the CR011-MMAE immunoconjugate was measured in an anti-tumor xenograft model using athymic mice, according to published methods (see Geran et al., Cancer Chemother. Rep. 3:1-104 (1972)). […] When tumors became established (10-20 days), the animals were pair-matched into groups (n=6 mice/group), and treatment was administered by intravenous injection (tail vein). […]
The effects of treatment were monitored by repetitive tumor measurements across 2 diameters with Vernier calipers; tumor size (in mg) was calculated using a standard formula, (W^2×L)/2, assuming a specific gravity of 1.0. Tumor size and body weights were assessed twice weekly. […]

B1: Mab1.15.1 (protein, listed as Homo sapiens)
chain: QVQLQESGPGLVKPSQTLSLTCTVSGGSISSFNYYWSWIRHHPGKGLEWIGYIYYSGSTYSNPSLKSRVTISVDTSKNQFSLTLSSVTAADTAVYYCARGYNWNYFDYWGQGTLVTVSSA
Bin (GPNMB): Bin 2
internalization (CG56972-expressing cells): internalized
ADCC / cytolysis of SK-MEL-2 cells (SK-Mel-2 cells): do not cause ADCC; also recorded: did not show any cytolysis
tumor response ([1]; listed as CR011 antibody alone): lack of tumor growth inhibition
tumor response ([1]; listed as unconjugated CR011): lack of responses
